Reference: patent US20240287208A1 (CONCEPT TO MEDICINE BIOTECH, published 2024)

T1: human OX40 protein (human, UniProt P43489 29-216, limits assumed)
T1 sequence (looked up): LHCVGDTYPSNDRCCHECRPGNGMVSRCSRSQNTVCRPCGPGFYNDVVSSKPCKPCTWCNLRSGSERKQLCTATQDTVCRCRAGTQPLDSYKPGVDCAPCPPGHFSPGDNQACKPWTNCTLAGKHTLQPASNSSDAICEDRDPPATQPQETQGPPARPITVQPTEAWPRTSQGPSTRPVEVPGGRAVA


Tests used:
[1] = target: T2, human CD40 on the cell surface (human, UniProt P25942 21-277); assay: cell-based or functional assay
human OX40 protein = target: T1, human OX40 protein; assay: ELISA, plate-coated protein
Procedure: (§1) To evaluate the cross reactivity of chimeric anti-CD40 antibodies to other family members of TNF receptors, the ELISA binding towards human 4-1BB and human OX40 were performed.
(§2) Briefly, microtiter plates were coated with human 4-1BB protein or human OX40 protein at 1 μg/ml in PBS, 100 μl/well at 4° C. overnight, then blocked with 150 μl/well of 1% BSA. Ten-fold dilutions of 42p155, 2p834, 2p931, 42p655, 2p1294, 2p957, 42p495, 3p78, 2p415, 2p442, 2p551, 2p80 and 2p1130 antibodies starting from 100 nM were added to each well and incubated for 1 hour at RT. The plates were washed with PBS/Tween and then incubated with Anti-Human IgG (H&L) (GOAT) Antibody Peroxidase Conjugated for 30 mins at RT. After washing, the plates were developed with TMB substrate and analyzed by spectrophotometer at OD 450 nm.

human 4-1BB protein = target: T3, human 4-1BB protein (human, UniProt Q07011 24-186); assay: ELISA, plate-coated protein
T3 construct: also called 4-IBB
Procedure: as §1, §2

human CD40-His protein = target: T4, human CD40-His protein (human, UniProt P25942 21-193); assay: ELISA, plate-coated human CD40-His
T4 construct: His-tagged recombinant protein; also called human CD40-his tag; recombinant CD40 protein
Procedure: (§3) To evaluate the binding activity of clones 42p155, 2p834, 2p931, 42p655, 2p1294, 2p957, 42p495, 3p78, 2p415, 2p442, 2p551, 2p80 and 2p1130, the chimeric monospecific antibody (mAb) from these clones were subjected to ELISA test, along with selicrelumab, the clinical benchmark anti-CD40 agonist antibodies.
as §2, with “human CD40-His” for “human 4-1BB protein or human OX40”, “at 1.0” for “at 1”, “150 µl/well” for “150 μl/well”

[2] = target: T5, cynomolgus CD40-His protein (cynomolgus, UniProt G7PG38 21-193); assay: ELISA, plate-coated cynomolgus CD40-His
T5 construct: His-tagged recombinant protein; also called cyno CD40 antigen
Procedure: as §3
as §2, with “The binding affinity of these clones to cynomolgus CD40 was also tested. Microtiter plates” for “Briefly, microtiter plates”, “with cynomolgus CD40-His” for “with human 4-1BB protein or human OX40”, “at 1.0” for “at 1”, “100 µl/well” for “100 μl/well”, “150 µl/well” for “150 μl/well”, “nm. As shown in FIG. 1B and Table 2, all these clones bound to cynomolgus CD40 at high activity, showing good cross-reactivity between human and cynomolgus CD40 proteins.” for “nm.”

[3] = target: T2, human CD40 on the cell surface; assay: FACS, Jurkat cells overexpressing human CD40, PE anti-human IgG, MFI
Procedure: To evaluate the binding affinity of 5T4-CD40 bispecific antibodies to cell surface CD40, bispecific antibodies with formats of b 1 (42p155z2), b12 (42p155z2), b13 (42p155z2), b16 (42p155z2), b17 (42p155z2) and b18 (2p1130) were tested in Jurkat cell lines that overexpressed CD40 by FACS. A total number of 1×10⁵ Jurkat-CD40 cells in each well were incubated with 5-fold serially diluted antibodies starting from 100 nM for 30 minutes at 4° C. in FACS buffer. After wash by FACS buffer, PE conjugated-anti-human IgG antibody was added to each well and incubated at 4° C. for 30 minutes. After wash, MFI of PE was evaluated by MACSQuant Analyzer 16.

T2 sequence (P25942 21-277): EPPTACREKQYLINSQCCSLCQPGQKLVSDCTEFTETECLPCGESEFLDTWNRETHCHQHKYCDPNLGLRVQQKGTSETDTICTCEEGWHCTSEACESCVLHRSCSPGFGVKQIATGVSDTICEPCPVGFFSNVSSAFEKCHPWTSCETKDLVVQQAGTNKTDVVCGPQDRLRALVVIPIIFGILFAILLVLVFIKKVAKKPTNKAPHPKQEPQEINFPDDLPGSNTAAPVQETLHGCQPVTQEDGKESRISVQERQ
T4 sequence (P25942 21-193 limits assumed): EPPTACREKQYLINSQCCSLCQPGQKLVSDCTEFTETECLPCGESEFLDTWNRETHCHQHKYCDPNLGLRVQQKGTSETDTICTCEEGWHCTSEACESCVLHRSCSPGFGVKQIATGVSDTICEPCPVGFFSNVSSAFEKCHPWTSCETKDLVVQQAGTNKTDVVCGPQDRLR

Binder	CD40 NF-κB luciferase reporter (Jurkat), RLU [1]	binding result (human OX40 protein)	binding result (human 4-1BB protein)	EC50 (human CD40-His protein)	EC50 [2]	EC50 (read off the curve) [3]	binding result [3]
42p155 chimeric monospecific antibody (antibody, V domains shown, Chimeric monospecific antibody (cAb) made from the VHH; also called 42p155 cAb) VH: PSQLVESGGGLVQPGGSLRLSCAASGFAFRSYTMSWVRQAPGKGLEWVSTITHNGAITTYAESAQGRFTISRDNAKNTLYLQMNSLKPEDTAVYYCAQGGGSNYYRESWGQGTQVTVSS	> 10 nM	no binding (tested: 100 nM (highest concentration))	no binding (tested: 100 nM (highest concentration))				
42p655 chimeric monospecific antibody (antibody, V domains shown, Chimeric monospecific antibody) VH: AVQLVESGGGLVQPGGSLRLSCAASGFAFRRYTMSWVRQAPGKGLEWVSSITDNGSITTYAESAQGRFTISRDNAKNTLYLQMNSLKPEDTAVYHCAQGGGSNYYRESWGQGTQVTVSS	> 10 nM	no binding (tested: 100 nM (highest concentration))	no binding (tested: 100 nM (highest concentration))	1.24 nM	0.35 nM		
2p1294 chimeric monospecific antibody (antibody, V domains shown, Chimeric monospecific antibody) VH: QVQLVESGGGLVQPGGSLRLSCAASGFSFRRYTMSWVRQAPGKGLEWVSAISDNGAITTYTESAQGRFTISRDNAKNTLYLQMNSLKPEDTAVYYCAQGGGSNYYRESWGQGTQVTVSS	> 10 nM	no binding (tested: 100 nM (highest concentration))	no binding (tested: 100 nM (highest concentration))	1.16 nM	0.32 nM		
b18 (2p1130) anti-5T4/CD40 bispecific antibody (bispecific antibody, human IgG1, kappa, N297A, also called 1+3 b18 format) heavy 1: EVQLQQSGPELVKPGASVKISCKASGYAFSSSWMNWVKQRPGKGLEWIGRIYREDGHTNYNGKFKGKATLTADKSSTTAYMQLTSLTSEDSAVYFCANGGAMDYWGQGTSVTVSSASTKGPSVFPLAPSSKSTSGGTAALGCLVKDYFPEPVTVSWNSGALTSGVHTFPAVLQSSGLYSLSSVVTVPSSSLGTQTYICNVNHKPSNTKVDKKVEPKSCDKTHTCPPCPAPELLGGPSVFLFPPKPKDTLMISRTPEVTCVVVDVSHEDPEVKFNWYVDGVEVHNAKTKPREEQYASTYRVVSVLTVLHQDWLNGKEYKCKVSNKALPAPIEKTISKAKGQPREPQVCTLPPSREEMTKNQVSLSCAVKGFYPSDIAVEWESNGQPENNYKTTPPVLDSDGSFFLVSKLTVDKSRWQQGNVFSCSVMHEALHNHYTQKSLSLSPGK light: DIQMTQSTSSLSASLGDRVTISCRASQDISNYLNWYQQKPDGTVKLLIYYTSRLHSGVPSRFSGSGSGTDYSLTISNLEQEDIATYFCQQDNTLPWTFGGGTKLEIKRTVAAPSVFIFPPSDEQLKSGTASVVCLLNNFYPREAKVQWKVDNALQSGNSQESVTEQDSKDSTYSLSSTLTLSKADYEKHKVYACEVTHQGLSSPVTKSFNRGEC heavy 2: not shown						~2 nM	
b11 (42p155z2) anti-5T4/CD40 bispecific antibody (bispecific antibody, human IgG1, kappa, N297A, also called b 1 (42p155z2); 2+2 b11 format) heavy: not shown light: DIQMTQSTSSLSASLGDRVTISCRASQDISNYLNWYQQKPDGTVKLLIYYTSRLHSGVPSRFSGSGSGTDYSLTISNLEQEDIATYFCQQDNTLPWTFGGGTKLEIKRTVAAPSVFIFPPSDEQLKSGTASVVCLLNNFYPREAKVQWKVDNALQSGNSQESVTEQDSKDSTYSLSSTLTLSKADYEKHKVYACEVTHQGLSSPVTKSFNRGEC							binds
2p1130 chimeric monospecific antibody (antibody, V domains shown, Chimeric monospecific antibody) VH: EVQVVESGGGLVQPGGSLRLTCAASGFSVDDYGIGWFRQAPGREREGVACITPNGLMMNFANTVGSVAGRFSASRDSGENTVSLQMSSLKPEDTAIYFCAHSRDDSCRGSLSDYDDWGQGTQVTVSS	> 10 nM	no binding (tested: 100 nM (highest concentration))	no binding (tested: 100 nM (highest concentration))	2.56 nM	0.73 nM		
2p957 chimeric monospecific antibody (antibody, V domains shown, Chimeric monospecific antibody) VH: PVQLVESGGGLVQPGGSLRLSCAASGFSFRNYIMSWVRQAPGKGLEWLSSITNSGGITSYTESVKGRFTISRDNAKNTLYLQMNSLKPEDTAVYYCAQGGSDNYYRGSWGQGTQVTVSS	> 10 nM	no binding (tested: 100 nM (highest concentration))	no binding (tested: 100 nM (highest concentration))	1.8 nM	1.08 nM		
42p495 chimeric monospecific antibody (antibody, V domains shown, Chimeric monospecific antibody) VH: PVQLVESGGNLVQPGGSLRLSCVAPGFTSRNSAMSWVRQAPGKGLEWVSTIYSGKSNTDYADSVKGRFTISTDNAKNTLYLHMNKLKSEDTAVYYCAKGAASDWYVPRDYWGQGTQVTVSS	> 10 nM	no binding (tested: 100 nM (highest concentration))	no binding (tested: 100 nM (highest concentration))	1.52 nM	1 nM		
2p551 chimeric monospecific antibody (antibody, V domains shown, Chimeric monospecific antibody) VH: QLHFVESGGGLVQPGGSLRLSCAASGFTLDYYAIGWFRQAPGKEREGVSCISGGGSTRYADSVKGRFTISRDNAKNTVYLQMNSLTPEDTAVYYCAAARLLSTNCVPRDSGSWGQGTQVTVSS	> 10 nM	no binding (tested: 100 nM (highest concentration))	no binding (tested: 100 nM (highest concentration))	1.4 nM	0.13 nM		
2p415 chimeric monospecific antibody (antibody, V domains shown, Chimeric monospecific antibody) VH: QLHFVESGGGLVQPGGSLRLSCAASGFTLDHYAMGWFRQAPGKEREGVSCISGGGSTRYADSAKGRFTISRDNAKNTVYLQMNSLTPEDTAVYYCAAARLLSRNCVPRDSGSWGQGTQVTVSS	> 10 nM	no binding (tested: 100 nM (highest concentration))	no binding (tested: 100 nM (highest concentration))	1.27 nM	0.23 nM		
b13 (42p155z2) anti-5T4/CD40 bispecific antibody (bispecific antibody, human IgG1, kappa, N297A, also called 2+2 b13 format) heavy: not shown light: DIQMTQSTSSLSASLGDRVTISCRASQDISNYLNWYQQKPDGTVKLLIYYTSRLHSGVPSRFSGSGSGTDYSLTISNLEQEDIATYFCQQDNTLPWTFGGGTKLEIKRTVAAPSVFIFPPSDEQLKSGTASVVCLLNNFYPREAKVQWKVDNALQSGNSQESVTEQDSKDSTYSLSSTLTLSKADYEKHKVYACEVTHQGLSSPVTKSFNRGECGGGGSGGGGSGGGGSGGGGSEVQLVESGGGLVQPGGSLRLSCAASGFAFRSYTMSWVRQAPGKGLEWVSTITHNGAITTYAESAQGRFTISRDNSKNTLYLQMNSLRAEDTAVYYCAQGGGSNYYRESWGQGTQVTVSS							binds
